Experimental data from US20240425603A1 (Janssen / Centocor, published 2024).
Values joined by “and” are separate entries in the source; they are usually repeats but may differ in a detail not shown here. Equal entries are not always repeated.

Tests used:
VGFW1 = biological target: T1, VGFW1 (human, UniProt P17948 27-338, limits assumed); experiment: HDX-MS
T1 construct: construct of the HDX-MS work; also called VEGFR1 (VGFW1)
Outline: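 Hydrogen-deuterium exchange mass spectrometry mapped antibody binding on a recombinant VEGFR1 antigen. The read-out is the change in free energy per segment upon antibody binding. Segments above 2 kcal/mol count as strong epitopes and segments at 1-2 kcal/mol as weak ones.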

[1] = biological target: T2, human VEGFR1, full length, over-expressed on cells (human, UniProt P17948 27-1338); experiment: flow cytometry, CHO-K1 cells stably expressing human VEGFR1
T2 construct: on CHO-K1 or HEK cells; also called hVEGFR1; CHOK1/ human VEGFR1
T2 sequence (P17948 27-1338 limits assumed): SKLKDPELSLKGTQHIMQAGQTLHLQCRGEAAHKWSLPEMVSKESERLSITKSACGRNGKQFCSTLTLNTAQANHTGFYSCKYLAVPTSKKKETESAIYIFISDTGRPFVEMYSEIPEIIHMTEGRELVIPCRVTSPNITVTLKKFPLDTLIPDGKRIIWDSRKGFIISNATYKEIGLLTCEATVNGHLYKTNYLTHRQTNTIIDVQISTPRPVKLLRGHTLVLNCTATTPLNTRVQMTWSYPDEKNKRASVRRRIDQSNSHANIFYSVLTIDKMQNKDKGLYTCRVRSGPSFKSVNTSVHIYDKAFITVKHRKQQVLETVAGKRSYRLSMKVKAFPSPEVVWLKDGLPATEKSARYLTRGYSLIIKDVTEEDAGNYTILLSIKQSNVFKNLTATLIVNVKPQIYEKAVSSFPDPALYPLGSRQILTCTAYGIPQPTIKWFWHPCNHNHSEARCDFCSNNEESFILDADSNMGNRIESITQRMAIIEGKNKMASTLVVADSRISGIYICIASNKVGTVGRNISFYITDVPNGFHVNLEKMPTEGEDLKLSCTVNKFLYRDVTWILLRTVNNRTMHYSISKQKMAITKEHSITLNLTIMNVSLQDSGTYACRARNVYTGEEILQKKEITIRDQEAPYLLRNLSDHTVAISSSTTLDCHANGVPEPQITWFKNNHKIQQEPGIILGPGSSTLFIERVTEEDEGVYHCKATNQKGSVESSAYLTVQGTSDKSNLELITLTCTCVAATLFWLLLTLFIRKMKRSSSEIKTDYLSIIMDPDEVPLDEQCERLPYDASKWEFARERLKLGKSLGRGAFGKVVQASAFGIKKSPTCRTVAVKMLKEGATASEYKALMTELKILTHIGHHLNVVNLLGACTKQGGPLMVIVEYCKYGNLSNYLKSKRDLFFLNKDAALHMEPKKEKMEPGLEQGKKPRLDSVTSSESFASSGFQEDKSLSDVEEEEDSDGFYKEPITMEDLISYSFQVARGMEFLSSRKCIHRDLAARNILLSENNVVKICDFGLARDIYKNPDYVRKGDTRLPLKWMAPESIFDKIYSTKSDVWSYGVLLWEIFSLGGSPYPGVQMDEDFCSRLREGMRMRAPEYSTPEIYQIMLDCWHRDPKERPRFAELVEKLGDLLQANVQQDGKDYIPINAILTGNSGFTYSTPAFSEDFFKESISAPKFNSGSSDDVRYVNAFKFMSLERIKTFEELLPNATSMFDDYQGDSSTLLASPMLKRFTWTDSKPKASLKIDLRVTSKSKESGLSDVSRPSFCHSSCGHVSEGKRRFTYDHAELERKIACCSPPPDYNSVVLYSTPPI
Experimental: Full dose-response curves for binding of anti-VEGFR1 antibodies to VEGFR1 on cells were also generated. Parental CHO-K1 cells and CHO-K1 cells stably expressing human VEGFR1 (CHO-K1\hVEGFR1) were cultured in aMEM+10% FBS and aMEM+10% FBS containing 10 μg/mL Puromycin, respectively. CHOK1\hVEGFR1 were stained with CSFE as described above and parental CHO-K1 cells were left unstained. Cells were washed, combined (˜0.5×10⁶ cells/mL), and plated at ˜40,000 cells per well (75 μL/well). Serially diluted antibody samples were then added to the cells and incubated for 1 hour at 37° C. Cells were washed twice with stain buffer and then stained with AF647-conjugated secondary antibody for 30 min at 4° C. Plated cells were washed twice followed by the addition of read buffer containing Sytox Blue (1:1000) and read on an iQue flow cytometer. Data was fit to obtain EC₅₀ values (Table 22).

[2] = biological target: T3, human VEGFR3, over-expressed on K562 cells (human, UniProt P35916 25-1363); experiment: flow cytometry, 10 nM antibody, K562 cells over-expressing human VEGFR3
T3 construct: whole, on cells; also called huVEGFR3; hVEGFR3
T3 sequence (P35916 25-1363): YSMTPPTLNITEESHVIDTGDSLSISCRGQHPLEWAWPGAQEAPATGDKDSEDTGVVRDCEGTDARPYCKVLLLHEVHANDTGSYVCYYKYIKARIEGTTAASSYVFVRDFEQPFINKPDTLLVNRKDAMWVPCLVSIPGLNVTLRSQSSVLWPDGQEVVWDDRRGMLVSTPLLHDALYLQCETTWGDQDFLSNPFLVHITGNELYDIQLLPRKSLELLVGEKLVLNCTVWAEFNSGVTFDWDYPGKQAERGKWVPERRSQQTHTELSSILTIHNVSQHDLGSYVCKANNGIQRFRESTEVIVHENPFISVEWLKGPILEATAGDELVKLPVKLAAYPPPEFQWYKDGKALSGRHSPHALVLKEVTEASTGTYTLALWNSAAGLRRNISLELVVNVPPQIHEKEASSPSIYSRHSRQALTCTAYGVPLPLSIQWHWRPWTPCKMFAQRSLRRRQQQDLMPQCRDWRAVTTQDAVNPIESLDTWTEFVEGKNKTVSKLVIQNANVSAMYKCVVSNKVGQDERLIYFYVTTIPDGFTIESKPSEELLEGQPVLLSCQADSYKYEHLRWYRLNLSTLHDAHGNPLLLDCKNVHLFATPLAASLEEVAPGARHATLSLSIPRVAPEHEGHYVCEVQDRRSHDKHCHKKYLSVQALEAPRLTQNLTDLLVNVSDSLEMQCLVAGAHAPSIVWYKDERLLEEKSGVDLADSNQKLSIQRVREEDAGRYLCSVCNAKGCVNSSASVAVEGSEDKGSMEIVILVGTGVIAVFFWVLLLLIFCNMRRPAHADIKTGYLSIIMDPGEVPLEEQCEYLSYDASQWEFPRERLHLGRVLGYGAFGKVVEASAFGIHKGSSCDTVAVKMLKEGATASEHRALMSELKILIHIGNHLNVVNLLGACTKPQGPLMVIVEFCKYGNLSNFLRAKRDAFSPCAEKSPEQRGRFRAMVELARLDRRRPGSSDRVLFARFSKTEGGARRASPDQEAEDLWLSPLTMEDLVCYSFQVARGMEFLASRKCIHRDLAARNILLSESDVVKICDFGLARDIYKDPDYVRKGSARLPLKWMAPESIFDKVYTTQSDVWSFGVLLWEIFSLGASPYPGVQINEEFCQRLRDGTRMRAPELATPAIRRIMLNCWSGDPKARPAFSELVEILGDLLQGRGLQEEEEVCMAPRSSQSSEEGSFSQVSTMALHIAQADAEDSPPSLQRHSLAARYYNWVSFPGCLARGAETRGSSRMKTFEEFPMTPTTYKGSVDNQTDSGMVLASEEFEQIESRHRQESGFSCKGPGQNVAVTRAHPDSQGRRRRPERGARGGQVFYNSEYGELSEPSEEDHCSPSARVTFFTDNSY

[3] = biological target: T3, human VEGFR3, over-expressed on K562 …; experiment: FACS cell binding (MFI) on K562 cells over-expressing human VEGFR3; expanded clone supernatant per paragraph 492, concentration not given
Outline: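 Binding was assessed by flow cytometry as mean fluorescence intensity, using culture supernatants of chicken-derived antibody clones expressed as scFv-Fc (human IgG1). The clones were produced by transient transfection and expanded to 6-well plates (2 mL). Receptor over-expressing cells were HEK cells for mouse VEGFR1 and human VEGFR2, and K562 cells for human VEGFR3.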

[4] = biological target: T4, Recombinant mouse VEGFR1-Fc (R&D Systems) (mouse, UniProt P35969 27-759, limits assumed); experiment: MSD ECL competition on plate-bound mouse VEGFR1-Fc; competitor biotin PlGF (2 nM)
T4 construct: bought; not shown: Fc part of the bought fusion, not described
T4 sequence (looked up): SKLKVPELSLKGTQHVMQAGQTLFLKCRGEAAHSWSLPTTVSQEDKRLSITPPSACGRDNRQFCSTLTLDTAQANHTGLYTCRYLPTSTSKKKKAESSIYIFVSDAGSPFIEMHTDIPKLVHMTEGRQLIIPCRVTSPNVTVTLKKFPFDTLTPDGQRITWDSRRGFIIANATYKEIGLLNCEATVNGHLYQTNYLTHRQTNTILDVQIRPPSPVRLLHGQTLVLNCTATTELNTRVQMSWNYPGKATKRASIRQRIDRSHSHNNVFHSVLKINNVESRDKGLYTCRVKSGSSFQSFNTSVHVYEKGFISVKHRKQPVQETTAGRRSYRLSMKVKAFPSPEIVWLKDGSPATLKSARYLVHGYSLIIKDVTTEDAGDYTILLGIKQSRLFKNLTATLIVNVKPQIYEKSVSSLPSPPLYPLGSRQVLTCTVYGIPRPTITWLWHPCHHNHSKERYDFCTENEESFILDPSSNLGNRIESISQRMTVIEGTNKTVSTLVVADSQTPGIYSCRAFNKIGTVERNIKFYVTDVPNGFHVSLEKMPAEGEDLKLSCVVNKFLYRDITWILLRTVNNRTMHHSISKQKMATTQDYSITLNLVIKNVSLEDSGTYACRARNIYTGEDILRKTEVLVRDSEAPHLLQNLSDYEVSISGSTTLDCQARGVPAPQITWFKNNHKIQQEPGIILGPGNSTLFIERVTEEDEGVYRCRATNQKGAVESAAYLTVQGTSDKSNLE
Outline: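 Half-log antibody dilutions were pre-incubated for 30 minutes with VEGFR1 (human or mouse Fc fusion, or His-tagged cyno; 0.5 ug/ml) that had been captured for 1 hour at room temperature on blocked MSD 384 plates coated with Protein A/G or anti-His mAb. Biotinylated VEGFA (0.2 nM) or PlGF (2 nM) was then added and bound ligand was read with Sulfo-tagged streptavidin on an MSD SECTOR S 600 imager. IC50 and maximal percent inhibition were calculated from the electro-chemiluminescence readings.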

[5] = biological target: T5, mouse VEGFR1 (soluble antigen of the KinExA and SPR affinity assays) (mouse, UniProt P35969 23-759, limits assumed); experiment: SPR
T5 sequence (looked up): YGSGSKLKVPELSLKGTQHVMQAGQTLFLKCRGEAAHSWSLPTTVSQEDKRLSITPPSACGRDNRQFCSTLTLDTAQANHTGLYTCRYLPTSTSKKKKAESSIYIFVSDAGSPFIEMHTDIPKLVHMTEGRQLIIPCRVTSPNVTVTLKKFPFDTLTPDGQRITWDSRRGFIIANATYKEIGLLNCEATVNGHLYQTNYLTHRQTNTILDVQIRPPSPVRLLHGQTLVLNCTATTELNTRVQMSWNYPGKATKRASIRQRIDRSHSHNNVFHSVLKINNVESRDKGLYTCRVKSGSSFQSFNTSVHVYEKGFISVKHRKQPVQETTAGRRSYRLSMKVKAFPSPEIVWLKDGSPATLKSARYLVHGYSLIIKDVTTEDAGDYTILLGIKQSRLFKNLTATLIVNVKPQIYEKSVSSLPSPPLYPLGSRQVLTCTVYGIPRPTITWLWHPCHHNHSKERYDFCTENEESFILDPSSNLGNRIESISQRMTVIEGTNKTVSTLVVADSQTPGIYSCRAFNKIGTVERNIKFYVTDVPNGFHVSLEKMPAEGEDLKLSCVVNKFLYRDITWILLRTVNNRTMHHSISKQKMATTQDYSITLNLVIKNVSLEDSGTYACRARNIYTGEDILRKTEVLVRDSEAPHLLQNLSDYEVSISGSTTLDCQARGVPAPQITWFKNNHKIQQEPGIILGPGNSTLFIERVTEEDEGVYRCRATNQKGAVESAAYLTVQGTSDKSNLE

T1 sequence (P17948 27-338 limits assumed): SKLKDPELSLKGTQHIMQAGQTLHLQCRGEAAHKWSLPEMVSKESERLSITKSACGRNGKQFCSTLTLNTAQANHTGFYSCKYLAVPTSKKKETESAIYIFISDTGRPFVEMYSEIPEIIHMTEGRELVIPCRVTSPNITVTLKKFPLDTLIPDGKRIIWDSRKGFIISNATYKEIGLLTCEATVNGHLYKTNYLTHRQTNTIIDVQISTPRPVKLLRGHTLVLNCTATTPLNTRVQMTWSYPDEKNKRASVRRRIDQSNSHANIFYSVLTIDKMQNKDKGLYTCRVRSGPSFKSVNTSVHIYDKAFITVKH

B1: VGFB71 (antibody, human IgG1, lambda, L234A L235A, V domains shown)
VH: EVQLLESGGGLVQPGGSLRLSCEASGFIFRDYNMNWVRQAPGKGLEWVSIITNDGSSTAYSDSVKGRFTISRDNSKNSLYLQMNSLRAEDTAIYYCVKVYYGMDDWGQGTTVTVSS
VL: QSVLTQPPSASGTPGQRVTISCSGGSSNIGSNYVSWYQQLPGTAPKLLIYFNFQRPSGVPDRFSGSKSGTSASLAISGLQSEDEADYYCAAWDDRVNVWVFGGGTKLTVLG
notes: human IgG1 (L234A/L235A/D265S)
- Free energy change upon binding (ΔΔG), VEGFR1 segment 141-147 (VGFW1): -0.3 kcal/mol
- Free energy change upon binding (ΔΔG), VEGFR1 segment 147-153 (VGFW1): -1.2 kcal/mol
- Free energy change upon binding (ΔΔG), VEGFR1 segment 172-177 (VGFW1): -4.2 kcal/mol
- Free energy change upon binding (ΔΔG), VEGFR1 segment 178-199 (VGFW1): 0 kcal/mol
- Free energy change upon binding (ΔΔG), VEGFR1 segment 200-200 (VGFW1): -2.8 kcal/mol
- Free energy change upon binding (ΔΔG), VEGFR1 segment 201-204 (VGFW1): -2.8 kcal/mol
- Free energy change upon binding (ΔΔG), VEGFR1 segment 211-215 (VGFW1): -0.1 kcal/mol
- Free energy change upon binding (ΔΔG), VEGFR1 segment 218-228 (VGFW1): -0.3 kcal/mol
- EC50 [1]: 0.11 nM
- Geomean over-expressing/Geomean parental (Fold Signal/Background) [2]: 0.98 fold
- binding result [3]: no binding

B2: VGFB54 (antibody, human IgG1, lambda, L234A L235A, V domains shown)
VH: EVQLLESGGGSVQPGGSLRLSCTASGFNFEDYGMNWVRQAPGKGLDWVSSINRNGDISTYHVDSVKGRFTISRDNSKNTLYLQMNSLRAEDTAIYYCTKNHDYHGMDVWGQGTTVTVSS
VL: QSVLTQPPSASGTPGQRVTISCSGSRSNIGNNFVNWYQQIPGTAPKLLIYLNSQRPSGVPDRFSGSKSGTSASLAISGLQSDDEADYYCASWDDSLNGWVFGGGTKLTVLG
notes: human IgG1 (L234A/L235A/D265S), lambda, 2H:2L; from OmniChicken
- IC50 [4]: 0.24 nM
- Max % Inh. [4]: 98.4%
- Free energy change upon binding (ΔΔG), VEGFR1 segment 141-147 (VGFW1): -0.2 kcal/mol
- Free energy change upon binding (ΔΔG), VEGFR1 segment 147-153 (VGFW1): -0.4 kcal/mol
- Free energy change upon binding (ΔΔG), VEGFR1 segment 172-177 (VGFW1): -2.6 kcal/mol
- Free energy change upon binding (ΔΔG), VEGFR1 segment 178-199 (VGFW1): -0.3 kcal/mol
- Free energy change upon binding (ΔΔG), VEGFR1 segment 200-200 (VGFW1): -1.4 kcal/mol
- Free energy change upon binding (ΔΔG), VEGFR1 segment 201-204 (VGFW1): -3.6 kcal/mol
- Free energy change upon binding (ΔΔG), VEGFR1 segment 211-215 (VGFW1): -0.1 kcal/mol
- Free energy change upon binding (ΔΔG), VEGFR1 segment 218-228 (VGFW1): -0.7 kcal/mol
- Kd [5]: 5.3 nM
- EC50 [1]: 0.101 nM
- Geomean over-expressing/Geomean parental (Fold Signal/Background) [2]: 0.97 fold
- binding result [3]: no binding

B3: VGFB78 (antibody, human IgG1, lambda, L234A L235A, V domains shown)
VH: EVQLLESGGGLVQPGGSLRLSCAASSFTFYNYDMTWVRQAPGKGLEWVAGIGTSGTDMYYADSVKGRFTISRDNSKNTLYLQMNSLRAEDTAIYYCAKDYYYYGMDVWGLGTTVTVSS
VL: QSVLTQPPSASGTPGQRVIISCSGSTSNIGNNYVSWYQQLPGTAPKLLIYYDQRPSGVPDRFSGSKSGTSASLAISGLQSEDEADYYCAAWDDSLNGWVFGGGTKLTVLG
notes: as for B1
- IC50 [4]: 0.243 nM
- Max % Inh. [4]: 100%
- Free energy change upon binding (ΔΔG), VEGFR1 segment 141-147 (VGFW1): -0.3 kcal/mol
- Free energy change upon binding (ΔΔG), VEGFR1 segment 147-153 (VGFW1): -0.6 kcal/mol
- Free energy change upon binding (ΔΔG), VEGFR1 segment 172-177 (VGFW1): -2.7 kcal/mol
- Free energy change upon binding (ΔΔG), VEGFR1 segment 178-199 (VGFW1): -1.1 kcal/mol
- Free energy change upon binding (ΔΔG), VEGFR1 segment 200-200 (VGFW1): -2.9 kcal/mol
- Free energy change upon binding (ΔΔG), VEGFR1 segment 201-204 (VGFW1): -3.6 kcal/mol
- Free energy change upon binding (ΔΔG), VEGFR1 segment 211-215 (VGFW1): 0.1 kcal/mol
- Free energy change upon binding (ΔΔG), VEGFR1 segment 218-228 (VGFW1): -0.2 kcal/mol
- Kd [5]: 0.004 nM and < 0.006 nM
- EC50 [1]: 0.473 nM
- Geomean over-expressing/Geomean parental (Fold Signal/Background) [2]: 0.99 fold
- binding result [3]: no binding

B4: VGFB82 (antibody, human IgG1, lambda, L234A L235A, V domains shown)
VH: EVQLLESGGGLVQPGGSLRLSCEASGFDFSTYAMNWVRQAPGKGLEWVATINSEGTITSHAPAVKGRFTISRDNSKNTAYVQMNSLRAEDSAVYYCSSTTGTTHGMDVWGRGTTVTVSS
VL: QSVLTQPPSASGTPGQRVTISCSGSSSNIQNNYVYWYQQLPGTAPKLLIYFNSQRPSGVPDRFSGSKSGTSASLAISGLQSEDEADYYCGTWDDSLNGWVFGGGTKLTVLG
notes: as for B1
- IC50 [4]: 0.221 nM
- Max % Inh. [4]: 100%
- Free energy change upon binding (ΔΔG), VEGFR1 segment 141-147 (VGFW1): -0.6 kcal/mol
- Free energy change upon binding (ΔΔG), VEGFR1 segment 147-153 (VGFW1): -0.1 kcal/mol
- Free energy change upon binding (ΔΔG), VEGFR1 segment 172-177 (VGFW1): -0.6 kcal/mol
- Free energy change upon binding (ΔΔG), VEGFR1 segment 178-199 (VGFW1): -1 kcal/mol
- Free energy change upon binding (ΔΔG), VEGFR1 segment 200-200 (VGFW1): -0.5 kcal/mol
- Free energy change upon binding (ΔΔG), VEGFR1 segment 201-204 (VGFW1): -3.3 kcal/mol
- Free energy change upon binding (ΔΔG), VEGFR1 segment 211-215 (VGFW1): -0.1 kcal/mol
- Free energy change upon binding (ΔΔG), VEGFR1 segment 218-228 (VGFW1): -0.3 kcal/mol
- Kd [5]: 0.01 nM
- EC50 [1]: 0.136 nM
- Geomean over-expressing/Geomean parental (Fold Signal/Background) [2]: 1.01 fold
- binding result [3]: no binding
